Reference: patent publication EP1313853B1

Target: Fas (Apo-1, CD95) (human) (UniProt P25445)
Assay: cell-based or functional assay

UniProt P25445, sequence (P25445 26-335): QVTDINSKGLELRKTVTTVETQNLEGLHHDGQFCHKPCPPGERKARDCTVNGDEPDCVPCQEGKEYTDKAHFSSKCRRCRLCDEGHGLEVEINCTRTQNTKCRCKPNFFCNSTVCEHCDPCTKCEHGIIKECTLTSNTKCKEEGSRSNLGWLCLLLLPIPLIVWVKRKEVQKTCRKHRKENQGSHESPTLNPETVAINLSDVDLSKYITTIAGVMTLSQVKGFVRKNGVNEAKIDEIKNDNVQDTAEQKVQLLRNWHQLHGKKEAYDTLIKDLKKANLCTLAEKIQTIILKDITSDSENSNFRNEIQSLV

- % INHIBITION of Jurkat human leukemia T cell proliferation (MTT), 0.02 µg/ml antibody, no sequence: 16%
- % INHIBITION of Jurkat human leukemia T cell proliferation (MTT), 0.2 µg/ml antibody, no sequence: 33%
- % INHIBITION of UMUC-3 bladder cancer cell proliferation (MTT), 0.02 µg/ml antibody, no sequence: 7%
- % INHIBITION of UMUC-3 bladder cancer cell proliferation (MTT), 0.2 µg/ml antibody, no sequence: 17%
Substance: agonistic anti-Fas monoclonal antibodies (clone CH-11: Coulter-Immunotech, Marseille, France) (antibody)
